Reference: publication PMC9482650, “Quantitative fragmentomics allow affinity mapping of interactomes” (Nature Communications, 2022)

These binders were tested against AHNAK2, Q8IVF2 (assay: holdup assay). Conditions: plain residues with an end cap or a label only (N-terminal biotin on a linker: ttds).
Set-up: key: below the threshold = too weak to quantify, mostly under pKd 3.1 to 4

AHNAK2, Q8IVF2, sequence (Q8IVF2 108-193): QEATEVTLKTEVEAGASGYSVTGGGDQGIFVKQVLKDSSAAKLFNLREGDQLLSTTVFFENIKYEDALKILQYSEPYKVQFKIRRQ

Binder	pKd
RHTTSTETAV [HPV30-E6, P36809]	below the threshold

Each binder was assayed against T1, APBA3_2, O96018 (assay: holdup assay). Conditions: plain residues with an end cap or a label only (N-terminal biotin on a linker: ttds).
T1 sequence (O96018 480-570, limits assumed, looked up): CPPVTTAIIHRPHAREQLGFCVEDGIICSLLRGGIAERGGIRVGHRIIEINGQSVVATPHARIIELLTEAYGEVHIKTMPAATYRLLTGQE
Set-up: key: below the threshold = too weak to quantify, mostly under pKd 3.1 to 4

Binder	pKd
RLQRRRETQV [HPV18-E6, P06463]	below the threshold
SKPTRRETEV [HPV35-E6, P27228]	below the threshold
RHTTSTETAV [HPV30-E6, P36809]	below the threshold

These binders were tested against GRIP2_2, Q9C0E4 (assay: holdup assay). Conditions: plain residues with an end cap or a label only (N-terminal biotin on a linker: ttds).
Set-up: key: below the threshold = too weak to quantify, mostly under pKd 3.1 to 4

GRIP2_2, Q9C0E4, sequence (Q9C0E4 137-245): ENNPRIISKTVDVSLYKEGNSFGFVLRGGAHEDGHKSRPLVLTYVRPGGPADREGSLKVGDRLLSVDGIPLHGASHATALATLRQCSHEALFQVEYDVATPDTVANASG

Binder	pKd
RLQRRRETQV [HPV18-E6, P06463]	4.48
RHTTSTETAV [HPV30-E6, P36809]	below the threshold

Each binder was assayed against LIMK1, P53667 (assay: holdup assay). Conditions: plain residues with an end cap or a label only (N-terminal biotin on a linker: ttds).
Set-up: key: below the threshold = too weak to quantify, mostly under pKd 3.1 to 4

LIMK1, P53667, sequence (P53667 155-268): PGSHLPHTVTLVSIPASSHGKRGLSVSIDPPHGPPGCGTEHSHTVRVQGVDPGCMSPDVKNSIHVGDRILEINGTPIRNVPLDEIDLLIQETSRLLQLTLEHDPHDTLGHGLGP

Binder	pKd
RLQRRRETQV [HPV18-E6, P06463]	below the threshold
RHTTSTETAV [HPV30-E6, P36809]	below the threshold

These binders were tested against MAGI1_3, Q96QZ7 (assay: holdup assay). Conditions: plain residues with an end cap or a label only (N-terminal biotin on a linker: ttds).
Set-up: key: below the threshold = too weak to quantify, mostly under pKd 3.1 to 4

MAGI1_3, Q96QZ7, sequence (Q96QZ7 638-725): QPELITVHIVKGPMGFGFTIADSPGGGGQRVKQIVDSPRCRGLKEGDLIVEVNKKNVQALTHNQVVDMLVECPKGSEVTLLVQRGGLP

Binder	pKd
RLQRRRETQV [HPV18-E6, P06463]	below the threshold
SKPTRRETEV [HPV35-E6, P27228]	4.09
RHTTSTETAV [HPV30-E6, P36809]	4.72

The binders below were run against MAGI1_4, Q96QZ7 (assay: holdup assay). Conditions: plain residues with an end cap or a label only (N-terminal biotin on a linker: ttds).
Set-up: key: below the threshold = too weak to quantify, mostly under pKd 3.1 to 4

MAGI1_4, Q96QZ7, sequence (Q96QZ7 other isoform, or with tags, fused parts or gaps): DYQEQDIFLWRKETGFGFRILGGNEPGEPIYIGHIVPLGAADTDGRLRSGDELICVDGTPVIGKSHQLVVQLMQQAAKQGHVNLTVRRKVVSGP

Binder	pKd
RLQRRRETQV [HPV18-E6, P06463]	4.28
SKPTRRETEV [HPV35-E6, P27228]	below the threshold
RHTTSTETAV [HPV30-E6, P36809]	below the threshold

The binders below were run against MAGI3_3, Q5TCQ9 (assay: holdup assay). Conditions: plain residues with an end cap or a label only (N-terminal biotin on a linker: ttds).
Set-up: key: below the threshold = too weak to quantify, mostly under pKd 3.1 to 4

MAGI3_3, Q5TCQ9, sequence (Q5TCQ9 572-655): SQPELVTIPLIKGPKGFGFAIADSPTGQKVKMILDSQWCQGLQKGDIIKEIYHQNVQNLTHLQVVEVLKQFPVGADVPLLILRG

Binder	pKd
RLQRRRETQV [HPV18-E6, P06463]	below the threshold
RHTTSTETAV [HPV30-E6, P36809]	below the threshold

The binders below were run against T2, MPDZ_3, O75970 (assay: holdup assay). Conditions: plain residues with an end cap or a label only (N-terminal biotin on a linker: ttds).
T2 sequence (O75970 372-473, limits assumed, looked up): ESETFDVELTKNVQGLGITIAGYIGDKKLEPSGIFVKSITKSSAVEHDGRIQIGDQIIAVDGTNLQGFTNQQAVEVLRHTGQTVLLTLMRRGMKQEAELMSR
Set-up: key: below the threshold = too weak to quantify, mostly under pKd 3.1 to 4

Binder	pKd
RLQRRRETQV [HPV18-E6, P06463]	below the threshold
SKPTRRETEV [HPV35-E6, P27228]	below the threshold
RHTTSTETAV [HPV30-E6, P36809]	below the threshold

These binders were tested against T3, MPP5, Q8N3R9 (assay: holdup assay). Conditions: plain residues with an end cap or a label only (N-terminal biotin on a linker: ttds).
T3 sequence (Q8N3R9 251-346, limits assumed, looked up): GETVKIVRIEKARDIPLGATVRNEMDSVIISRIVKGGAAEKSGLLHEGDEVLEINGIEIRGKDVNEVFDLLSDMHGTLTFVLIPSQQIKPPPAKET
Set-up: key: below the threshold = too weak to quantify, mostly under pKd 3.1 to 4

Binder	pKd
RLQRRRETQV [HPV18-E6, P06463]	below the threshold
SKPTRRETEV [HPV35-E6, P27228]	below the threshold
RHTTSTETAV [HPV30-E6, P36809]	below the threshold

The binders below were run against NHERF2_1, Q15599 (assay: holdup assay). Conditions: plain residues with an end cap or a label only (N-terminal biotin on a linker: ttds).
Set-up: key: below the threshold = too weak to quantify, mostly under pKd 3.1 to 4

NHERF2_1, Q15599, sequence (Q15599 9-91): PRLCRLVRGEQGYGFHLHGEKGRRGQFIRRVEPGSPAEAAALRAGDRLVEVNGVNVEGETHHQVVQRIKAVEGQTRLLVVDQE

Binder	pKd
RLQRRRETQV [HPV18-E6, P06463]	below the threshold
SKPTRRETEV [HPV35-E6, P27228]	3.77
RHTTSTETAV [HPV30-E6, P36809]	below the threshold

The binders below were run against T4, PARD6B, Q9BYG5 (assay: holdup assay). Conditions: plain residues with an end cap or a label only (N-terminal biotin on a linker: ttds).
T4 sequence (Q9BYG5 152-260, limits assumed, looked up): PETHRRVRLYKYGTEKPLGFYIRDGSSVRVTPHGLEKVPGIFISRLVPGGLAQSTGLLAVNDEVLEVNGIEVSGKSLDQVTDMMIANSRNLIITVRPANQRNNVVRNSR
Set-up: key: below the threshold = too weak to quantify, mostly under pKd 3.1 to 4

Binder	pKd
RLQRRRETQV [HPV18-E6, P06463]	below the threshold
SKPTRRETEV [HPV35-E6, P27228]	below the threshold
RHTTSTETAV [HPV30-E6, P36809]	below the threshold

Each binder was assayed against T5, PARD6G, Q9BYG4 (assay: holdup assay). Conditions: plain residues with an end cap or a label only (N-terminal biotin on a linker: ttds).
T5 sequence (Q9BYG4 153-261, limits assumed, looked up): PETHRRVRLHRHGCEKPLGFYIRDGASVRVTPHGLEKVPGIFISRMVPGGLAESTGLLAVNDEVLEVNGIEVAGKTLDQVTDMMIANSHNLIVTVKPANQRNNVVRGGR
Set-up: key: below the threshold = too weak to quantify, mostly under pKd 3.1 to 4

Binder	pKd
RLQRRRETQV [HPV18-E6, P06463]	below the threshold
SKPTRRETEV [HPV35-E6, P27228]	below the threshold
RHTTSTETAV [HPV30-E6, P36809]	below the threshold

The binders below were run against T6, PDZD2_3, O15018 (assay: holdup assay). Conditions: plain residues with an end cap or a label only (N-terminal biotin on a linker: ttds).
T6 sequence (O15018 581-682, limits assumed, looked up): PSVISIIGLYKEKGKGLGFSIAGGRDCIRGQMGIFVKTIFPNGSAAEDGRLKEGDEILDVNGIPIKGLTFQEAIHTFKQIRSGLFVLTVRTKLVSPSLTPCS
Set-up: key: below the threshold = too weak to quantify, mostly under pKd 3.1 to 4

Binder	pKd
RLQRRRETQV [HPV18-E6, P06463]	below the threshold
SKPTRRETEV [HPV35-E6, P27228]	below the threshold
RHTTSTETAV [HPV30-E6, P36809]	below the threshold

What follows are binders tested against T7, PDZD8, Q8NEN9 (assay: holdup assay). Conditions: plain residues with an end cap or a label only (N-terminal biotin on a linker: ttds).
T7 sequence (Q8NEN9 361-459, limits assumed, looked up): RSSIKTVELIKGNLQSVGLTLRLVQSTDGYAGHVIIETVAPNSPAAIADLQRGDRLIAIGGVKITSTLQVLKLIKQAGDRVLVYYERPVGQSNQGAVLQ
Set-up: key: below the threshold = too weak to quantify, mostly under pKd 3.1 to 4

Binder	pKd
RLQRRRETQV [HPV18-E6, P06463]	below the threshold
SKPTRRETEV [HPV35-E6, P27228]	below the threshold
RHTTSTETAV [HPV30-E6, P36809]	below the threshold

These binders were tested against PDZD9, Q8IXQ8 (assay: holdup assay). Conditions: plain residues with an end cap or a label only (N-terminal biotin on a linker: ttds).
Set-up: key: below the threshold = too weak to quantify, mostly under pKd 3.1 to 4

PDZD9, Q8IXQ8, sequence (Q8IXQ8 23-120): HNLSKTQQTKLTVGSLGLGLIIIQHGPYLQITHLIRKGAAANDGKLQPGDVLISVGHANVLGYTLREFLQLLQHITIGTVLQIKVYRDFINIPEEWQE

Binder	pKd
RLQRRRETQV [HPV18-E6, P06463]	below the threshold
SKPTRRETEV [HPV35-E6, P27228]	below the threshold
RHTTSTETAV [HPV30-E6, P36809]	below the threshold

What follows are binders tested against T8, PDZRN3_2, Q9UPQ7 (assay: holdup assay). Conditions: plain residues with an end cap or a label only (N-terminal biotin on a linker: ttds).
T8 sequence (Q9UPQ7 414-513, limits assumed, looked up): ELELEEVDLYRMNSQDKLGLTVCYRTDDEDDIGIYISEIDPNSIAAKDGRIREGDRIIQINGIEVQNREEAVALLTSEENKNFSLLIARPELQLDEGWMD
Set-up: key: below the threshold = too weak to quantify, mostly under pKd 3.1 to 4

Binder	pKd
SKPTRRETEV [HPV35-E6, P27228]	3.57
RHTTSTETAV [HPV30-E6, P36809]	below the threshold

The binders below were run against PREX1_1, Q8TCU6 (assay: holdup assay). Conditions: plain residues with an end cap or a label only (N-terminal biotin on a linker: ttds).
Set-up: key: below the threshold = too weak to quantify, mostly under pKd 3.1 to 4

PREX1_1, Q8TCU6, sequence (Q8TCU6 608-718): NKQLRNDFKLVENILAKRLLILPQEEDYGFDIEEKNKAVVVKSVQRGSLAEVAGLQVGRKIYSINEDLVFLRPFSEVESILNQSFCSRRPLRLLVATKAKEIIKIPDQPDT

Binder	pKd
RLQRRRETQV [HPV18-E6, P06463]	below the threshold
SKPTRRETEV [HPV35-E6, P27228]	below the threshold
RHTTSTETAV [HPV30-E6, P36809]	below the threshold

These binders were tested against T9, PREX2_2, Q70Z35 (assay: holdup assay). Conditions: plain residues with an end cap or a label only (N-terminal biotin on a linker: ttds).
T9 sequence (Q70Z35 672-764, limits assumed, looked up): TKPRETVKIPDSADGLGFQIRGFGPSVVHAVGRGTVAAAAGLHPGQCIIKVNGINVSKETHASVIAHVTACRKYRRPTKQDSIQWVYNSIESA
Set-up: key: below the threshold = too weak to quantify, mostly under pKd 3.1 to 4

Binder	pKd
RLQRRRETQV [HPV18-E6, P06463]	4
SKPTRRETEV [HPV35-E6, P27228]	3.62
RHTTSTETAV [HPV30-E6, P36809]	below the threshold

The binders below were run against SCRIB_4, Q14160 (assay: holdup assay). Conditions: plain residues with an end cap or a label only (N-terminal biotin on a linker: ttds).
Set-up: key: below the threshold = too weak to quantify, mostly under pKd 3.1 to 4

SCRIB_4, Q14160, sequence (Q14160 1095-1204): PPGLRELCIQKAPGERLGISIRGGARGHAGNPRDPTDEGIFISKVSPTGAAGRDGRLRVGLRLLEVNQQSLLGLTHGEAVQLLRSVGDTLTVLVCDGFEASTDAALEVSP

Binder	pKd
RLQRRRETQV [HPV18-E6, P06463]	below the threshold
SKPTRRETEV [HPV35-E6, P27228]	3.78
RHTTSTETAV [HPV30-E6, P36809]	4.59

What follows are binders tested against T10, SHANK2, Q9UPX8 (assay: holdup assay). Conditions: plain residues with an end cap or a label only (N-terminal biotin on a linker: ttds).
T10 sequence (Q9UPX8 621-730, limits assumed, looked up): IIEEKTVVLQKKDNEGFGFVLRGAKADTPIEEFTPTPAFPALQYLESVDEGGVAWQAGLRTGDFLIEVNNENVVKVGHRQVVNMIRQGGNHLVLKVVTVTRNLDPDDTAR
Set-up: key: below the threshold = too weak to quantify, mostly under pKd 3.1 to 4

Binder	pKd
RLQRRRETQV [HPV18-E6, P06463]	below the threshold
SKPTRRETEV [HPV35-E6, P27228]	below the threshold
RHTTSTETAV [HPV30-E6, P36809]	below the threshold

These binders were tested against T11, SHANK3, Q9BYB0 (assay: holdup assay). Conditions: plain residues with an end cap or a label only (N-terminal biotin on a linker: ttds).
T11 sequence (Q9BYB0 641-750, limits assumed, looked up): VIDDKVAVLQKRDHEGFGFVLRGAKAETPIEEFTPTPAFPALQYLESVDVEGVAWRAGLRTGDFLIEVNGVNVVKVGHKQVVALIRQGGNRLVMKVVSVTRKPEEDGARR
Set-up: key: below the threshold = too weak to quantify, mostly under pKd 3.1 to 4

Binder	pKd
RLQRRRETQV [HPV18-E6, P06463]	below the threshold
SKPTRRETEV [HPV35-E6, P27228]	below the threshold
RHTTSTETAV [HPV30-E6, P36809]	below the threshold

Each binder was assayed against T12, SHROOM2, Q13796 (assay: holdup assay). Conditions: plain residues with an end cap or a label only (N-terminal biotin on a linker: ttds).
T12 sequence (Q13796 21-118, limits assumed, looked up): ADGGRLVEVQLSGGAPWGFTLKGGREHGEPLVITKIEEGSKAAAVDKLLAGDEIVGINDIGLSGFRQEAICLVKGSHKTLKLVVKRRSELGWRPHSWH
Set-up: key: below the threshold = too weak to quantify, mostly under pKd 3.1 to 4

Binder	pKd
RLQRRRETQV [HPV18-E6, P06463]	below the threshold
SKPTRRETEV [HPV35-E6, P27228]	below the threshold
RHTTSTETAV [HPV30-E6, P36809]	below the threshold

These binders were tested against T13, SNTA1, Q13424 (assay: holdup assay). Conditions: plain residues with an end cap or a label only (N-terminal biotin on a linker: ttds).
T13 sequence (Q13424 82-180, limits assumed, looked up): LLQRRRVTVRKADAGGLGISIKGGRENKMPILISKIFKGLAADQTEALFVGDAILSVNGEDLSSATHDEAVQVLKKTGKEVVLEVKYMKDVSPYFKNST
Set-up: key: below the threshold = too weak to quantify, mostly under pKd 3.1 to 4

Binder	pKd
RLQRRRETQV [HPV18-E6, P06463]	4.7
SKPTRRETEV [HPV35-E6, P27228]	4.85
RHTTSTETAV [HPV30-E6, P36809]	4.72
